Experimental findings from article PMC10786891, “Massively parallel profiling of RNA-targeting CRISPR-Cas13d” are described below.

First the molecules themselves.
T1: EsCas13d, nuclease-dead (Eubacterium siraeum, UniProt B0MS50, R295A;H300A;R849A;H854A)
T1 sequence: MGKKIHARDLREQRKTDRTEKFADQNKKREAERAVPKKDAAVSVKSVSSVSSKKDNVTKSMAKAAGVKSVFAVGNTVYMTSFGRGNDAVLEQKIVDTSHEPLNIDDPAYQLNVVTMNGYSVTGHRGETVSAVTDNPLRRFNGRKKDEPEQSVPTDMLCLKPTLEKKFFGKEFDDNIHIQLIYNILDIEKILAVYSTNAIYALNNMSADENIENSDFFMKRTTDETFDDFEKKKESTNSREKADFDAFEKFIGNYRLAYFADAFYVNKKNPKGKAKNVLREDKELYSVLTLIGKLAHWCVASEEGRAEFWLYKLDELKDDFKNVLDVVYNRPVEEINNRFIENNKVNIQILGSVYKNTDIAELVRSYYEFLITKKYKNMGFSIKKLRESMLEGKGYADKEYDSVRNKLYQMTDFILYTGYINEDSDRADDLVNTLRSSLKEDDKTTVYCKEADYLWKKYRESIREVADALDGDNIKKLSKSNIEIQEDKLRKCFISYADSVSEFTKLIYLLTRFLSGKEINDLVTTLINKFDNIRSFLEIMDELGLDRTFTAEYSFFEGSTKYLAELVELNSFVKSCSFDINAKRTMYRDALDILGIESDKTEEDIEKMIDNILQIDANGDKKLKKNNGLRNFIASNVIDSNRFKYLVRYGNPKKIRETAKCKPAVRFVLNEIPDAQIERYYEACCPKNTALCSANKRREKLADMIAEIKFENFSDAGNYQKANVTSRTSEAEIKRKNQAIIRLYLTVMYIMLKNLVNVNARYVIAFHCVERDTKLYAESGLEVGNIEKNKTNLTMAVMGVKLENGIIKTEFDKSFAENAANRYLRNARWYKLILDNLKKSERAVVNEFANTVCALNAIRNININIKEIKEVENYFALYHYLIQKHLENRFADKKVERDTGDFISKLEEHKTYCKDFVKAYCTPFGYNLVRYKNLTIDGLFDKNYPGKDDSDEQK

B1: target 1 insG 3' of 11,insC 3' of 9 (mixed)
RNA 1: CACCCGUGCAAAAAUGCAGGGGUCUAAAACUGAGCGGAUAACCUCUCUAUGG
RNA 2: GGGAAUGGAUCCACAUCUACGAAUUCGUACCAUAGAGAGGUGUACUCCGCUCACCGAGAUCGGAAGAGCACACGU
B2: target 1 insC 3' of 18,insG 3' of 14 (mixed)
RNA 1: CACCCGUGCAAAAAUGCAGGGGUCUAAAACUGAGCGGAUAACCUCUCUAUGG
RNA 2: GGGAAUGGAUCCACAUCUACGAAUUCGUACCAUACGAGAGGGUUAUCCGCUCACCGAGAUCGGAAGAGCACACGU
B3: target 1 insC 3' of 11,insC 3' of 11 (mixed)
RNA 1: CACCCGUGCAAAAAUGCAGGGGUCUAAAACUGAGCGGAUAACCUCUCUAUGG
RNA 2: GGGAAUGGAUCCACAUCUACGAAUUCGUACCAUAGAGAGGUCCUAUCCGCUCACCGAGAUCGGAAGAGCACACGU
B4: target 1 insC 3' of 11,insC 3' of 1 (mixed)
RNA 1: CACCCGUGCAAAAAUGCAGGGGUCUAAAACUGAGCGGAUAACCUCUCUAUGG
RNA 2: GGGAAUGGAUCCACAUCUACGAAUUCGUACCAUAGAGAGGUCUAUCCGCUCACCCGAGAUCGGAAGAGCACACGU
B5: target 1 insA 3' of 10,insA 3' of 5 (mixed)
RNA 1: CACCCGUGCAAAAAUGCAGGGGUCUAAAACUGAGCGGAUAACCUCUCUAUGG
RNA 2: GGGAAUGGAUCCACAUCUACGAAUUCGUACCAUAGAGAGGUUAAUCCGACUCACCGAGAUCGGAAGAGCACACGU
B6: target 1 insU 3' of 18,insU 3' of 6 (mixed)
RNA 1: CACCCGUGCAAAAAUGCAGGGGUCUAAAACUGAGCGGAUAACCUCUCUAUGG
RNA 2: GGGAAUGGAUCCACAUCUACGAAUUCGUACCAUAUGAGAGGUUAUCCUGCUCACCGAGAUCGGAAGAGCACACGU
B7: target 1 insC 3' of 9,insU 3' of 5 (mixed)
RNA 1: CACCCGUGCAAAAAUGCAGGGGUCUAAAACUGAGCGGAUAACCUCUCUAUGG
RNA 2: GGGAAUGGAUCCACAUCUACGAAUUCGUACCAUAGAGAGGUUACUCCGUCUCACCGAGAUCGGAAGAGCACACGU
B8: target 1 C4G,G12U (mixed)
RNA 1: CACCCGUGCAAAAAUGCAGGGGUCUAAAACUGAGCGGAUAACCUCUCUAUGG
RNA 2: GGGAAUGGAUCCACAUCUACGAAUUCGUACCAUAGAGAGUUUAUCCGGUCACCGAGAUCGGAAGAGCACACGU
B9: target 1 G12A,C22A (mixed)
RNA 1: CACCCGUGCAAAAAUGCAGGGGUCUAAAACUGAGCGGAUAACCUCUCUAUGG
RNA 2: GGGAAUGGAUCCACAUCUACGAAUUCGUAACAUAGAGAGAUUAUCCGCUCACCGAGAUCGGAAGAGCACACGU
B10: target 1 insC 3' of 12,insU 3' of 2 (mixed)
RNA 1: CACCCGUGCAAAAAUGCAGGGGUCUAAAACUGAGCGGAUAACCUCUCUAUGG
RNA 2: GGGAAUGGAUCCACAUCUACGAAUUCGUACCAUAGAGAGGCUUAUCCGCUCUACCGAGAUCGGAAGAGCACACGU
B11: target 1 G5U,A9G (mixed)
RNA 1: CACCCGUGCAAAAAUGCAGGGGUCUAAAACUGAGCGGAUAACCUCUCUAUGG
RNA 2: GGGAAUGGAUCCACAUCUACGAAUUCGUACCAUAGAGAGGUUGUCCUCUCACCGAGAUCGGAAGAGCACACGU
B12: target 1 insC 3' of 8,insC 3' of 8 (mixed)
RNA 1: CACCCGUGCAAAAAUGCAGGGGUCUAAAACUGAGCGGAUAACCUCUCUAUGG
RNA 2: GGGAAUGGAUCCACAUCUACGAAUUCGUACCAUAGAGAGGUUAUCCCCGCUCACCGAGAUCGGAAGAGCACACGU
B13: target 1 insU 3' of 9,insC 3' of 5 (mixed)
RNA 1: CACCCGUGCAAAAAUGCAGGGGUCUAAAACUGAGCGGAUAACCUCUCUAUGG
RNA 2: GGGAAUGGAUCCACAUCUACGAAUUCGUACCAUAGAGAGGUUAUUCCGCCUCACCGAGAUCGGAAGAGCACACGU
B14: target 1 insC 3' of 11,insG 3' of 1 (mixed)
RNA 1: CACCCGUGCAAAAAUGCAGGGGUCUAAAACUGAGCGGAUAACCUCUCUAUGG
RNA 2: GGGAAUGGAUCCACAUCUACGAAUUCGUACCAUAGAGAGGUCUAUCCGCUCAGCCGAGAUCGGAAGAGCACACGU
B15: target 1 C2G,A9G (mixed)
RNA 1: CACCCGUGCAAAAAUGCAGGGGUCUAAAACUGAGCGGAUAACCUCUCUAUGG
RNA 2: GGGAAUGGAUCCACAUCUACGAAUUCGUACCAUAGAGAGGUUGUCCGCUGACCGAGAUCGGAAGAGCACACGU
B16: target 1 A9G,A20C (mixed)
RNA 1: CACCCGUGCAAAAAUGCAGGGGUCUAAAACUGAGCGGAUAACCUCUCUAUGG
RNA 2: GGGAAUGGAUCCACAUCUACGAAUUCGUACCCUAGAGAGGUUGUCCGCUCACCGAGAUCGGAAGAGCACACGU
B17: target 1 insC 3' of 20,insU 3' of 4 (mixed)
RNA 1: CACCCGUGCAAAAAUGCAGGGGUCUAAAACUGAGCGGAUAACCUCUCUAUGG
RNA 2: GGGAAUGGAUCCACAUCUACGAAUUCGUACCACUAGAGAGGUUAUCCGCUUCACCGAGAUCGGAAGAGCACACGU
B18: target 1 insG 3' of 14,insA 3' of 10 (mixed)
RNA 1: CACCCGUGCAAAAAUGCAGGGGUCUAAAACUGAGCGGAUAACCUCUCUAUGG
RNA 2: GGGAAUGGAUCCACAUCUACGAAUUCGUACCAUAGAGAGGGUUAAUCCGCUCACCGAGAUCGGAAGAGCACACGU
B19: target 1 U10A,A20C (mixed)
RNA 1: CACCCGUGCAAAAAUGCAGGGGUCUAAAACUGAGCGGAUAACCUCUCUAUGG
RNA 2: GGGAAUGGAUCCACAUCUACGAAUUCGUACCCUAGAGAGGUAAUCCGCUCACCGAGAUCGGAAGAGCACACGU
B20: target 1 C7U,U11A (mixed)
RNA 1: CACCCGUGCAAAAAUGCAGGGGUCUAAAACUGAGCGGAUAACCUCUCUAUGG
RNA 2: GGGAAUGGAUCCACAUCUACGAAUUCGUACCAUAGAGAGGAUAUUCGCUCACCGAGAUCGGAAGAGCACACGU
B21: target 1 A1G,C4A (mixed)
RNA 1: CACCCGUGCAAAAAUGCAGGGGUCUAAAACUGAGCGGAUAACCUCUCUAUGG
RNA 2: GGGAAUGGAUCCACAUCUACGAAUUCGUACCAUAGAGAGGUUAUCCGAUCGCCGAGAUCGGAAGAGCACACGU
B22: target 1 del5,del8 (mixed)
RNA 1: CACCCGUGCAAAAAUGCAGGGGUCUAAAACUGAGCGGAUAACCUCUCUAUGG
RNA 2: GGGAAUGGAUCCACAUCUACGAAUUCGUACCAUAGAGAGGUUACCCUCACCGAGAUCGGAAGAGCACACGU
B23: target 1 insG 3' of 19,insA 3' of 17 (mixed)
RNA 1: CACCCGUGCAAAAAUGCAGGGGUCUAAAACUGAGCGGAUAACCUCUCUAUGG
RNA 2: GGGAAUGGAUCCACAUCUACGAAUUCGUACCAUGAGAAGAGGUUAUCCGCUCACCGAGAUCGGAAGAGCACACGU

For the data set, the target named is T1, EsCas13d, nuclease-dead. In words: crRNA (strand 1, pre-loaded); Mg2+; 40 mM Tris-HCl pH 7.5, 150 mM NaCl, 6 mM MgCl2, 1 mM DTT, 0.1% Tween-20, 0.2 mg/ml BSA; 25 C; 10 min per concentration, then washed. Particulars: tags: His6-TwinStrep-SUMO cleaved; N-terminal SNAP kept (SNAP-Surface 488); label: 3' end held by stalled T7 RNA polymerase.
A word on the Kd: it is the equilibrium constant for the complex coming apart. Low readings indicate a tighter complex, high ones a looser complex. The molecule B1 had an equilibrium dissociation constant (Kd) of 31.4 ± 2.2 nM.

Turning to B2, the Kd came out at 47.4 ± 3 nM. On to B3, for which binding was put at a Kd of 35 ± 7 nM. The result for B4 reads 26.2 ± 1.7 nM; that for B5, 5.79 ± 0.32 nM. B6: binding was put at a Kd of 40.4 ± 2.6 nM. B7 returned a Kd of 7.39 ± 0.32 nM. The value for B8 was 9.5 ± 1.6 nM; that for B9 was 13 ± 0.9 nM; that for B10 was 12.2 ± 0.8 nM. The value for B11 was 27.2 ± 1.8 nM; that for B12 was 14.5 ± 0.7 nM. The value for B13 was 12.9 ± 1.3 nM. B14: binding was characterised by a dissociation constant (Kd) of 35 ± 9 nM. The value for B15 was 9.1 ± 0.4 nM; that for B16 was 54 ± 15 nM; that for B17 was 9.1 ± 0.5 nM.

In turn, B18 came in with a Kd of 30.3 ± 2.3 nM. B19: the Kd amounted to 48 ± 4 nM.

As to B20, the Kd was 32.7 ± 2.9 nM. In turn, B21 returned a Kd of 4.5 ± 0.4 nM. The value for B22 was 18 ± 0.8 nM. Take B23: the Kd was determined as 73 ± 12 nM.
